Biological target: T1, HA-Rlf (mouse, UniProt Q61193 1-778)
T1 sequence (looked up): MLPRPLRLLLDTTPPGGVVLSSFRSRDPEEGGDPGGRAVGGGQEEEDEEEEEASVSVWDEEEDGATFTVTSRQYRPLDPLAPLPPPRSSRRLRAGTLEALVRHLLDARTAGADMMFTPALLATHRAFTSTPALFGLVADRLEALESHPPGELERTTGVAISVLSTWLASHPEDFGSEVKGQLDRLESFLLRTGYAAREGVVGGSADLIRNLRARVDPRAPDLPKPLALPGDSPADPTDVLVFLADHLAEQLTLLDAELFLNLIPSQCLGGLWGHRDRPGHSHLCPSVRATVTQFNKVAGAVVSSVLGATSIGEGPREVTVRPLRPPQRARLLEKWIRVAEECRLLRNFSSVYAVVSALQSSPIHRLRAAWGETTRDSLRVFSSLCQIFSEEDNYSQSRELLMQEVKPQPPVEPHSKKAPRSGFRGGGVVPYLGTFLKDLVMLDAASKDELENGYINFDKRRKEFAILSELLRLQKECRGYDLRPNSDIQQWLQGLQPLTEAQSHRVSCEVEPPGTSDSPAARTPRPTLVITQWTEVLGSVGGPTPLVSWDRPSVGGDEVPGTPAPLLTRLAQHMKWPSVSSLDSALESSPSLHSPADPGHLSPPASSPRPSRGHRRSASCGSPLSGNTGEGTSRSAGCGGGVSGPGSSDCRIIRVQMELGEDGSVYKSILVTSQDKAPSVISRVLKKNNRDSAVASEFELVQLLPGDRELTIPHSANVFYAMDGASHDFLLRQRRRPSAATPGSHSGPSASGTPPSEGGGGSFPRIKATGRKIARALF
Test: co-IP

fold binding against wild-type Rab10: 2 fold
B1: Myc-Rab10 (QL) (natural protein, UniProt P61026 1-200, looked up)
chain: MAKKTYDLLFKLLLIGDSGVGKTCVLFRFSDDAFNTTFISTIGIDFKIKTVELQGKKIKLQIWDTAGLERFHTITTSYYRGAMGIMLVYDITNGKSFENISKWLRNIDEHANEDVERMLLGNKCDMDDKRVVPKGKGEQIAREHGIRFFETSAKANINIEKAFLTLAEDILRKTPVKEPNSENVDISSGGGVTGWKSKCC
